The labels stand for the following.
B1: 14-3-3 protein sigma (Homo sapiens), P31947 (parent)
chain: MERASLIQKAKLAEQAERYEDMAAFMKGAVEKGEELSCEERNLLSVAYKNVVGGQRAAWRVLSSIEQKSNEEGSEEKGPEVREYREKVETELQGVCDTVLGLLDSHLIKEAGDAESRVFYLKMKGDYYRYLAEVATGDDKKRIIDSARSAYQEAMDISKKEMPPTNPIRLGLALNFSVFHYEIANSPEEAISLAKTTFDEAMADLHTLSEDSYKDSTLIMQLLRDNLTLWTADNAGEEGGEAPQEPQS
partner: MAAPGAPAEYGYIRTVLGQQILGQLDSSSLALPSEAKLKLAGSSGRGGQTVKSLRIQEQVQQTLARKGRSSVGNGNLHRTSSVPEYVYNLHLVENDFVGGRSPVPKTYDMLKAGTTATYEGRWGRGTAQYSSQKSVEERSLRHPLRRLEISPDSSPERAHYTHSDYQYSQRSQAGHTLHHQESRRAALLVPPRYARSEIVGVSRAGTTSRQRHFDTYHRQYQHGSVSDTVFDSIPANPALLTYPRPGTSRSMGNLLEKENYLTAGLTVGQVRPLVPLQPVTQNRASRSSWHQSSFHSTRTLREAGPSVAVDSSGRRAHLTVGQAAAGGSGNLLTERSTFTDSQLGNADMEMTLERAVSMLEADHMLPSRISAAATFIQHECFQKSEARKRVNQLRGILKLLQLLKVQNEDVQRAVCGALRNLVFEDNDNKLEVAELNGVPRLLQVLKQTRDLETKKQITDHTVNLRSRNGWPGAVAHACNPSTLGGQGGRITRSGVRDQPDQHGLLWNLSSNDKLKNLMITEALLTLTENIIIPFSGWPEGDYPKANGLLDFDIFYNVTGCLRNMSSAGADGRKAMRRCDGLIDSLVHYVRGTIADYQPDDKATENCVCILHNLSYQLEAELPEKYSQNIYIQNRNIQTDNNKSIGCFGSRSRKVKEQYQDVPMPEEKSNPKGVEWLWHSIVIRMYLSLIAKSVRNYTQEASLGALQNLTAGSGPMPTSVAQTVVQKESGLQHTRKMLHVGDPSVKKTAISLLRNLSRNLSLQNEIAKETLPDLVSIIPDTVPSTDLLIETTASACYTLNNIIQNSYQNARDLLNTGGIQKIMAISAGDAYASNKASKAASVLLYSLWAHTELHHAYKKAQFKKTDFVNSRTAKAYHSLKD
B2: 14-3-3 protein sigma (Homo sapiens), P31947 (parent)
chain: B1 chain
partner: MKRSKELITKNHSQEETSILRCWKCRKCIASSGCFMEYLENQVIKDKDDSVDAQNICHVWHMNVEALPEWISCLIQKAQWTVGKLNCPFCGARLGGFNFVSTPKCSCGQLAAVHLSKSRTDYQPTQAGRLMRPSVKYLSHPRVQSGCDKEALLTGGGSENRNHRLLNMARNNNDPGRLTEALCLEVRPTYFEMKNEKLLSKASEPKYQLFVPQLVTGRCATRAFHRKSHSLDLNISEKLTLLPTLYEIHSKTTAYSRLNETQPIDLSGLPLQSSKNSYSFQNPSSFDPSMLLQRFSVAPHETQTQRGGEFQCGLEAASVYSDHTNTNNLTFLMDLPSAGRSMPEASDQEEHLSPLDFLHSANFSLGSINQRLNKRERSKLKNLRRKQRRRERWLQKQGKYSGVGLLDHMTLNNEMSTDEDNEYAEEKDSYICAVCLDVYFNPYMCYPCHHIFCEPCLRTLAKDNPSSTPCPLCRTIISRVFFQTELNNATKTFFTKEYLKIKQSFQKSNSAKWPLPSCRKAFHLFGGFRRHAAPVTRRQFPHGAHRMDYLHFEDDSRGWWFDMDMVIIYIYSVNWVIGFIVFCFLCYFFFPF
B3: 14-3-3 protein sigma (Homo sapiens), P31947 (parent)
chain: B1 chain
partner: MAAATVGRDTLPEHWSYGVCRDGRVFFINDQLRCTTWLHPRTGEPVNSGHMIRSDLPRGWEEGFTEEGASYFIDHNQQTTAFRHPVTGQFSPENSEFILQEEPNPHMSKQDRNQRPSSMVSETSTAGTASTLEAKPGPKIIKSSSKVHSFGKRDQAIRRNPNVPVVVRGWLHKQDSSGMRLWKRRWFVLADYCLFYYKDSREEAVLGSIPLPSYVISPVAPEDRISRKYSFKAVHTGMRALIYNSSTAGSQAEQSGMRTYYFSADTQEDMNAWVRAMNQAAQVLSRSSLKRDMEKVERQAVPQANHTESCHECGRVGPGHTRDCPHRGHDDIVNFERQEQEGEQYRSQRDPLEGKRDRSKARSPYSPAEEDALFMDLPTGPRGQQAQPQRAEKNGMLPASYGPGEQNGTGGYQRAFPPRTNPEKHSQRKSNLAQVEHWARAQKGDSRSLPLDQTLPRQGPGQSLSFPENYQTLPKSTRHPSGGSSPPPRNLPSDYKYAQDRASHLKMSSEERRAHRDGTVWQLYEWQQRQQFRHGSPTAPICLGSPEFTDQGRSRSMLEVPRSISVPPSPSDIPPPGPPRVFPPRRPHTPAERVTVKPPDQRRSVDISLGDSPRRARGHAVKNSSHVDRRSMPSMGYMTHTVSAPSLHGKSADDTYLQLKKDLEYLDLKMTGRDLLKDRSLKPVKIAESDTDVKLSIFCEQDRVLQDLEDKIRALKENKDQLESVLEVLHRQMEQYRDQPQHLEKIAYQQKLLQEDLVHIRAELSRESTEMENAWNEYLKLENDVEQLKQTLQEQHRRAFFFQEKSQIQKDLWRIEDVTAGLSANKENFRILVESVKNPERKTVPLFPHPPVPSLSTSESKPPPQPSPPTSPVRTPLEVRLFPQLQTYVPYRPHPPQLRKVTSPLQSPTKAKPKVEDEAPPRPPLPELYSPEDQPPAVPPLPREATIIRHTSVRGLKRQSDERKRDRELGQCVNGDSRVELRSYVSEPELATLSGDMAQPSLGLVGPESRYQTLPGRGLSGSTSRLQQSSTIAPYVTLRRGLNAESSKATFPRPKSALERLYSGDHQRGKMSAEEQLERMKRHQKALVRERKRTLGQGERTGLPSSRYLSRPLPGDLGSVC
B4: 14-3-3 protein sigma (Homo sapiens), P31947 (parent)
chain: B1 chain
partner: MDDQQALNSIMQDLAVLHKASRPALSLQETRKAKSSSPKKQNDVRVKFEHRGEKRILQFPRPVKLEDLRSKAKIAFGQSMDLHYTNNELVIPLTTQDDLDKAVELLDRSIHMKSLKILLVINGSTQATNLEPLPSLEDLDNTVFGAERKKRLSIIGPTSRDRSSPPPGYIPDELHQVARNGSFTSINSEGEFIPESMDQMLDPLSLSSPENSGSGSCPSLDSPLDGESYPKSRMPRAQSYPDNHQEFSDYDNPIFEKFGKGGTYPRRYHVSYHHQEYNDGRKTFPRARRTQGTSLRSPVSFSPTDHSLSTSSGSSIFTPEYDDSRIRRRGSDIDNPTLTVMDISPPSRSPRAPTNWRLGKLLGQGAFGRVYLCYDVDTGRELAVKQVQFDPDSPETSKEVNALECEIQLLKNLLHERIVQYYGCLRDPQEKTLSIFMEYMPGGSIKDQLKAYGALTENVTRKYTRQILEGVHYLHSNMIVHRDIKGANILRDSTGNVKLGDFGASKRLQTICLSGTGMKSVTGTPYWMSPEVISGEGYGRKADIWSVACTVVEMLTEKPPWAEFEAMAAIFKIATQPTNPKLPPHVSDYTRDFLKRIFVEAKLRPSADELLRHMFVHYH
B5: 14-3-3 protein sigma (Homo sapiens), P31947 (parent)
chain: B1 chain
partner: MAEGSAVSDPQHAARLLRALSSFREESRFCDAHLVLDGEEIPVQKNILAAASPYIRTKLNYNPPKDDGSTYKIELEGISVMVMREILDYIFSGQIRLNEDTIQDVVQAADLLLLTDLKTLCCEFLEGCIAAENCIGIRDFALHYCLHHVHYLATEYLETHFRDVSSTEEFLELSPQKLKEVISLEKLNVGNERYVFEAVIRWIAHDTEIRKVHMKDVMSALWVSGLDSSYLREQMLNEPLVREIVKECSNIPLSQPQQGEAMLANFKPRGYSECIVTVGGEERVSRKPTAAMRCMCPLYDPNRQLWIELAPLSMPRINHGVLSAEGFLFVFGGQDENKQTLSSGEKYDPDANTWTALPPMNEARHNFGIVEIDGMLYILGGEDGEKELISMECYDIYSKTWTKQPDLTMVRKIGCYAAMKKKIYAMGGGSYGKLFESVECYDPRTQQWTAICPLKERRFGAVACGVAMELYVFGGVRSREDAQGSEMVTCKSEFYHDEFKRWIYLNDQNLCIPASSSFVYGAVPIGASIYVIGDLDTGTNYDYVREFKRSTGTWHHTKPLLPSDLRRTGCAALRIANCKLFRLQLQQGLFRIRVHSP

The record followed here is IntAct's records for PubMed 36931259.

The variants in one experiment derive from B1. Particulars: with pkp2_human PKP2, Q99959.
On to K49E;R56E;V178D, for which the “effect of a mutation on the interaction” value was “decreasing interaction strength”.

Variants of B2 are the subject of another experiment. Particulars: with rn180_human RNF180, Q86T96.
Consider K49E;R56E;V178D, for which the “effect of a mutation on the interaction” value is listed as “decreasing interaction strength”.

The variants in the next experiment derive from B3. Conditions: with pkha7_human PLEKHA7, Q6IQ23.
As for K49E;R56E;V178D, the “effect of a mutation on the interaction” value is “decreasing interaction strength”.

Variants of B4 are the subject of a further experiment. Conditions: with m3k2_human MAP3K2, Q9Y2U5.
Turning to K49E;R56E;V178D, the “effect of a mutation on the interaction” value is reported as “decreasing interaction strength”.

In a further experiment the parent is B5. Particulars: with gan_human GAN.
Take K49E;R56E;V178D: the “effect of a mutation on the interaction” value is given as “decreasing interaction strength”.
